The values below come from US20210244739A1.

The assay concerns the target human protein kinase R (PKR) (human) (UniProt P19525). Kind of assay: cell-based or functional assay.
Chain of UniProt P19525 (P19525 2-551 limits assumed): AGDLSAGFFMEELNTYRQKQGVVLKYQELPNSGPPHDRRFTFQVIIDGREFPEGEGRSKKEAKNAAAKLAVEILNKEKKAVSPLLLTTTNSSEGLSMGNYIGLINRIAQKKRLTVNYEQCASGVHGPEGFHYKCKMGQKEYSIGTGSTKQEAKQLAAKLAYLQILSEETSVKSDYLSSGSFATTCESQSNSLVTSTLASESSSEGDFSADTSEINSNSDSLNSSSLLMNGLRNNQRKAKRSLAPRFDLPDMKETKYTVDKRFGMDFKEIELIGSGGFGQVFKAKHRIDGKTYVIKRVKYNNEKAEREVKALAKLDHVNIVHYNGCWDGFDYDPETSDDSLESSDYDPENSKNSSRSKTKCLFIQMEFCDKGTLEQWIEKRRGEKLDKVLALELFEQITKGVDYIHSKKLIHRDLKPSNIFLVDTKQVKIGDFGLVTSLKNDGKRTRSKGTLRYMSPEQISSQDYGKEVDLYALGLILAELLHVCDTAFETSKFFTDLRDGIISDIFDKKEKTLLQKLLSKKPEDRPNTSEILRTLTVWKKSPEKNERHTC

As to sheeppox virus 011 (K3 ortholog), the virus titre increase between 5 hpi and 48 hpi in HeLa cells was over 10 fold.

On to taterapox virus 037 (K3 ortholog), for which the virus titre increase between 5 hpi and 48 hpi in HeLa cells was over 10 fold.
